Results taken from the supplement of paper PMC12764529.
± gives the half width of the 95% confidence interval.

Tests used:
[1] = folding stability dG unfold from trypsin proteolysis; higher = more stable
In short: (§1)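 Digests were run with trypsin and chymotrypsin at 11 concentrations in threefold dilutions, plus a no-protease condition, on designed mini-proteins in a PA-tagged cDNA display construct. The mini-proteins were under 80 residues, had no cysteine, and were kept only when AlphaFold2 dimer inter-PAE was above 15. After sequencing, Bayesian fitting of the counts gave K50, from which unfolding free energy was derived against a sequence-predicted unfolded-state K50 and a shared folded-state K50, per protease or combined.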

[2] = folding stability dG unfold from chymotrypsin proteolysis; higher = more stable
In short: as §1

[3] = folding stability dG unfold (combined trypsin and chymotrypsin); higher = more stable
In short: as §1

With “SAGGSAGGSKLKIPIIRKFKPDEPLPTAEDVKAILEELGLDIKEVKVTYFPEYGYAIAEVEVSSAGGSAGGS [r12_1052_TrMRF]” the “folding stability dG unfold” value [1] was 1.57 ± 0.033 kcal/mol, the “folding stability dG unfold” value [2] was 1.24 ± 0.039 kcal/mol and the “folding stability dG unfold” value [3] was 1.41 ± 0.067 kcal/mol.

For “SAGGSAGGSKMLLVKVYVPEFDTVVVFEAPRDITIEEIEERLREAGFSVARIEVVEFDLPEGGSAGGSAGGS [r12_955_TrMRF]”, the “folding stability dG unfold” value [1] was 3.02 ± 0.049 kcal/mol, the “folding stability dG unfold” value [2] was 3.766 ± 0.022 kcal/mol and the “folding stability dG unfold” value [3] was 3.55 ± 0.071 kcal/mol.

With “SAGGSAGGSKMRERTITFPNAKITIWYHPDGNVRMEVMNPGNGKPKREIWMKPGDIEEILKKFSAGGSAGGS [r20_129_TrROS]” the “folding stability dG unfold” value [1] was 1.62 ± 0.043 kcal/mol, the “folding stability dG unfold” value [2] was 2.58 ± 0.038 kcal/mol and the “folding stability dG unfold” value [3] was 2.32 ± 0.049 kcal/mol.

For “SAGGSAGGSKNGEPPPVPTITMRFKDPDKIRKLNKKAGLPIEHDPGNGYITFPYRQIDKILKASAGGSAGGS [r12_325_TrROS]”, the “folding stability dG unfold” value [1] was 3.98 ± 0.8 kcal/mol, the “folding stability dG unfold” value [2] was 5.86 ± 0.32 kcal/mol and the “folding stability dG unfold” value [3] was greater than 6 kcal/mol.

With “SAGGSAGGSKNMVMVEIPFEHKVKQPDPPDGKWRQHEHKPTIPYMIPPEDAEELLNSPALKKISAGGSAGGS [r12_1015_TrROS]” the “folding stability dG unfold” value [1] was 0.138 ± 0.2 kcal/mol, the “folding stability dG unfold” value [2] was 0.0107 ± 0.21 kcal/mol and the “folding stability dG unfold” value [3] was 0.043 ± 0.19 kcal/mol.

For “SAGGSAGGSKPDEVEVIEIKVPPGARVRLPDGSVVEIKPGDPNTTYRIVVDKKNKKITIEPLDSAGGSAGGS [r12_338_TrROS_Hall]”, the “folding stability dG unfold” value [1] was 1.38 ± 0.12 kcal/mol, the “folding stability dG unfold” value [2] was 1.43 ± 0.12 kcal/mol and the “folding stability dG unfold” value [3] was 1.46 ± 0.27 kcal/mol.

In the case of “SAGGSAGGSKPGKPREIMIPFPDNWFMSIRVWPGRIEIENPDNGKEFEIPIGAPIEIELFPLDSAGGSAGGS [r12_227_TrROS]”, the “folding stability dG unfold” value [1] is reported as 1.98 ± 0.035 kcal/mol, the “folding stability dG unfold” value [2] is reported as 1.81 ± 0.095 kcal/mol and the “folding stability dG unfold” value [3] is reported as 1.89 ± 0.17 kcal/mol.

With “SAGGSAGGSKPIKTKATIPLPNGKTITADVEIVVLPDGNILLRVPSGKVILVPPNYPVTFEDASAGGSAGGS [r20_227_TrMRF]” the “folding stability dG unfold” value [1] was 1.71 ± 0.025 kcal/mol, the “folding stability dG unfold” value [2] was 1.62 ± 0.021 kcal/mol and the “folding stability dG unfold” value [3] was 1.67 ± 0.036 kcal/mol.

With “SAGGSAGGSKPRPIDIMFPNPENGRPVMIRIEYTKDKIKAEWYFGNKPQEKKIDDPEDLLEFISAGGSAGGS [r12_299_TrROS]” the “folding stability dG unfold” value [1] was 0.0886 ± 0.055 kcal/mol, the “folding stability dG unfold” value [2] was 1.08 ± 0.1 kcal/mol and the “folding stability dG unfold” value [3] was 0.754 ± 0.096 kcal/mol.

With “SAGGSAGGSKPVLKITVTNEKGEKQTISLDELQAETGLSAEEIAARLAALLPPGAKITIEPVPSAGGSAGGS [r12_399_TrROS_Hall]” the “folding stability dG unfold” value [1] was 1.81 ± 0.024 kcal/mol, the “folding stability dG unfold” value [2] was 2.11 ± 0.023 kcal/mol and the “folding stability dG unfold” value [3] was 1.98 ± 0.048 kcal/mol.

With “SAGGSAGGSKRKIKVDDVEPPPNGFMRVTLEVDDGKPLVPINIPPGQTPSEVKDQVKDLVEELSAGGSAGGS [r12_798_TrROS]” the “folding stability dG unfold” value [1] was 3.86 ± 0.31 kcal/mol, the “folding stability dG unfold” value [2] was 3.74 ± 0.41 kcal/mol and the “folding stability dG unfold” value [3] was 3.85 ± 0.49 kcal/mol.

For “SAGGSAGGSKTIEIVVPPNTTPEEIAKKLKELFPDAKITSVEVYVDKKTKKIVYVKVKIEVKPSAGGSAGGS [r12_822_TrROS_Hall]”, the “folding stability dG unfold” value [1] was 2.68 ± 0.1 kcal/mol, the “folding stability dG unfold” value [2] was 3.82 ± 0.057 kcal/mol and the “folding stability dG unfold” value [3] was 3.46 ± 0.087 kcal/mol.

For “SAGGSAGGSKTIKIEIEKMSEEELKNLTAEEIAKLLGVKEVKVTKEKIEITLTEEELKKLEKKSAGGSAGGS [r12_178_TrROS_Hall]”, the “folding stability dG unfold” value [1] was 0.257 ± 0.099 kcal/mol, the “folding stability dG unfold” value [2] was 1.24 ± 0.022 kcal/mol and the “folding stability dG unfold” value [3] was 0.856 ± 0.14 kcal/mol.

For “SAGGSAGGSKTILIVLPPGEELTPEQLKALAAALPPDATLTILVYDPETKELHVFTFKLPEGLSAGGSAGGS [r12_913_TrROS_Hall]”, the “folding stability dG unfold” value [1] was 2.99 ± 0.069 kcal/mol, the “folding stability dG unfold” value [2] was 4.14 ± 0.054 kcal/mol and the “folding stability dG unfold” value [3] was 3.87 ± 0.081 kcal/mol.

For “SAGGSAGGSKTLIIKIKVEGLSEEEIAEELAKKLQEETGLKIKSVKIEKKDGYLYIEVEVEEPSAGGSAGGS [r12_781_TrROS_Hall]”, the “folding stability dG unfold” value [1] was 3.86 ± 0.4 kcal/mol, the “folding stability dG unfold” value [2] was 3.96 ± 0.17 kcal/mol and the “folding stability dG unfold” value [3] was 4.15 ± 0.21 kcal/mol.

For “SAGGSAGGSKTVYRITIYNEKTGKKLVIEIEESMSEEEKEQKIKDLLKKLLPPGAKIKIEKVPSAGGSAGGS [r20_213_TrROS_Hall]”, the “folding stability dG unfold” value [1] was 3.34 ± 0.44 kcal/mol, the “folding stability dG unfold” value [2] was 4.44 ± 0.2 kcal/mol and the “folding stability dG unfold” value [3] was 4.08 ± 0.25 kcal/mol.

With “SAGGSAGGSKTYKIKVEKLEDGTYKLKIIDKKTKKEYEITISKKNLPKIKEIKITKNGKIEIKSAGGSAGGS [r20_11_TrROS_Hall]” the “folding stability dG unfold” value [1] was 1.73 ± 0.026 kcal/mol, the “folding stability dG unfold” value [2] was 3.08 ± 0.071 kcal/mol and the “folding stability dG unfold” value [3] was 2.75 ± 0.12 kcal/mol.

With “SAGGSAGGSKVKIETVENEDGVKFERVVDEETGKTVFLAKNKKTGKLYLFVITPDGEIKVFELSAGGSAGGS [r12_474_TrROS_Hall]” the “folding stability dG unfold” value [1] was 1.42 ± 0.033 kcal/mol, the “folding stability dG unfold” value [2] was 2.6 ± 0.049 kcal/mol and the “folding stability dG unfold” value [3] was 2.27 ± 0.089 kcal/mol.

With “SAGGSAGGSKYYRVRFKEEIEITLENGEKLKIKKGDVIVVPSKEDLDRLKALFPNLEVEVEPVSAGGSAGGS [r12_987_TrROS_Hall]” the “folding stability dG unfold” value [1] was 3.16 ± 0.1 kcal/mol, the “folding stability dG unfold” value [2] was 3.91 ± 0.043 kcal/mol and the “folding stability dG unfold” value [3] was 3.7 ± 0.099 kcal/mol.

With “SAGGSAGGSLKPGQPYIMIRIKIQHPNGNTRTFNIMVPWNDIPQILDFLESHGFKIKDIEIFPSAGGSAGGS [r12_986_TrROS]” the “folding stability dG unfold” value [1] was 3.94 ± 0.21 kcal/mol, the “folding stability dG unfold” value [2] was 5.42 ± 0.17 kcal/mol and the “folding stability dG unfold” value [3] was 5.09 ± 0.2 kcal/mol.

With “SAGGSAGGSLLEDIKKALEIIKPPPIPVKVKVKIEYDPEKGELKVEVEFFGIKLKVEGEFKIESAGGSAGGS [r20_230_TrMRF]” the “folding stability dG unfold” value [1] was 2.07 ± 0.22 kcal/mol, the “folding stability dG unfold” value [2] was 3.4 ± 0.16 kcal/mol and the “folding stability dG unfold” value [3] was 3.04 ± 0.26 kcal/mol.
